The results in this text go back to patent US20180355059A1 (PHARMAEXPLORER, published 2018).

To fix the notation:
B1: AF-mab023_01 (antibody, V domains shown)
VH: EVQLVESGGGLVQPGGSLRLSCAASGITFSSYWMSWVRQAPGKGLEWVANIKQDGSEKYYVDSVKGRFTISRDIAKNSLYLQMNSLRAEDTAVYYCARDRGTYYYGIGSYNYYYYGMDVWGQGTTVTVSS
VL: not shown
B2: AF-mab023_16 (antibody, V domains shown)
VH: EVQLVESGGGLVQPGGSLRLSCAASGITFSSYWMSWVRQAPGKGLEWVANIKQDGSEKYYVDSVKGRFTISRDIAKNSLYLQMNSLRAEDTAVYYCARDRGTYYYQDGKYNYYYYGMDVWGQGTTVTVSS
VL: not shown
B3: AF-mab023_02 (antibody, V domains shown)
VH: EVQLVESGGGLVQPGGSLRLSCAASGITFSSYWMSWVRQAPGKGLEWVANIKQDGSEKYYVDSVKGRFTISRDIAKNSLYLQMNSLRAEDTAVYYCARDRGTYYYWLGTYNYYYYGMDVWGQGTTVTVSS
VL: not shown
B4: AF-mab023_06 (antibody, V domains shown)
VH: EVQLVESGGGLVQPGGSLRLSCAASGITFSSYWMSWVRQAPGKGLEWVANIKQDGSEKYYVDSVKGRFTISRDIAKNSLYLQMNSLRAEDTAVYYCARDRGTYYFQSGSYNYYYYGMDVWGQGTTVTVSS
VL: not shown
B5: AF-mab023_10 (antibody, V domains shown)
VH: EVQLVESGGGLVQPGGSLRLSCAASGITFSSYWMSWVRQAPGKGLEWVANIKQDGSEKYYVDSVKGRFTISRDIAKNSLYLQMNSLRAEDTAVYYCARDRGTYYYDSGRYNYYYYGMDVWGQGTTVTVSS
VL: not shown
B6: AF-mab023_03 (antibody, V domains shown)
VH: EVQLVESGGGLVQPGGSLRLSCAASGITFSSYWMSWVRQAPGKGLEWVANIKQDGSEKYYVDSVKGRFTISRDIAKNSLYLQMNSLRAEDTAVYYCARDRGTYYYASGSYNYYYYGMDVWGQGTTVTVSS
VL: not shown
B7: AF-mab023_11 (antibody, V domains shown)
VH: EVQLVESGGGLVQPGGSLRLSCAASGITFSSYWMSWVRQAPGKGLEWVANIKQDGSEKYYVDSVKGRFTISRDIAKNSLYLQMNSLRAEDTAVYYCARDRGTYYYQEGSYNYYYYGMDVWGQGTTVTVSS
VL: not shown
B8: AF-mab023_15 (antibody, V domains shown)
VH: EVQLVESGGGLVQPGGSLRLSCAASGITFSSYWMSWVRQAPGKGLEWVANIKQDGSEKYYVDSVKGRFTISRDIAKNSLYLQMNSLRAEDTAVYYCARDRGTYYYQDGNYNYYYYGMDVWGQGTTVTVSS
VL: not shown
B9: AF-mab023_05 (antibody, V domains shown)
VH: EVQLVESGGGLVQPGGSLRLSCAASGITFSSYWMSWVRQAPGKGLEWVANIKQDGSEKYYVDSVKGRFTISRDIAKNSLYLQMNSLRAEDTAVYYCARDRGTYYHWLGSYNYYYYGMDVWGQGTTVTVSS
VL: not shown
B10: AF-mab023_04 (antibody, V domains shown)
VH: EVQLVESGGGLVQPGGSLRLSCAASGITFSSYWMSWVRQAPGKGLEWVANIKQDGSEKYYVDSVKGRFTISRDIAKNSLYLQMNSLRAEDTAVYYCARDRGTYYYDSGGYNYYYYGMDVWGQGTTVTVSS
VL: not shown
B11: AF-mab023_12 (antibody, V domains shown)
VH: EVQLVESGGGLVQPGGSLRLSCAASGITFSSYWMSWVRQAPGKGLEWVANIKQDGSEKYYVDSVKGRFTISRDIAKNSLYLQMNSLRAEDTAVYYCARDRGTYYYTEGGYNYYYYGMDVWGQGTTVTVSS
VL: not shown
B12: AF-mab023_08 (antibody, V domains shown)
VH: EVQLVESGGGLVQPGGSLRLSCAASGITFSSYWMSWVRQAPGKGLEWVANIKQDGSEKYYVDSVKGRFTISRDIAKNSLYLQMNSLRAEDTAVYYCARDRGTYYIADGSYNYYYYGMDVWGQGTTVTVSS
VL: not shown
B13: AF-mab023_19 (antibody, V domains shown)
VH: EVQLVESGGGLVQPGGSLRLSCAASGITFSSYWMSWVRQAPGKGLEWVANIKQDGSEKYYVDSVKGRFTISRDIAKNSLYLQMNSLRAEDTAVYYCARDRGTYYYASGKYNYYYYGMDVWGQGTTVTVSS
VL: not shown
B14: AF-mab023_14 (antibody, V domains shown)
VH: EVQLVESGGGLVQPGGSLRLSCAASGITFSSYWMSWVRQAPGKGLEWVANIKQDGSEKYYVDSVKGRFTISRDIAKNSLYLQMNSLRAEDTAVYYCARDRGTYYYADGGYNYYYYGMDVWGQGTTVTVSS
VL: not shown
B15: AF-mab023_17 (antibody, V domains shown)
VH: EVQLVESGGGLVQPGGSLRLSCAASGITFSSYWMSWVRQAPGKGLEWVANIKQDGSEKYYVDSVKGRFTISRDIAKNSLYLQMNSLRAEDTAVYYCARDRGTYYTGMGEYNYYYYGMDVWGQGTTVTVSS
VL: not shown
B16: AF-mab023_07 (antibody, V domains shown)
VH: EVQLVESGGGLVQPGGSLRLSCAASGITFSSYWMSWVRQAPGKGLEWVANIKQDGSEKYYVDSVKGRFTISRDIAKNSLYLQMNSLRAEDTAVYYCARDRGTYYYQQGSYNYYYYGMDVWGQGTTVTVSS
VL: not shown
B17: AF-mab023_18 (antibody, V domains shown)
VH: EVQLVESGGGLVQPGGSLRLSCAASGITFSSYWMSWVRQAPGKGLEWVANIKQDGSEKYYVDSVKGRFTISRDIAKNSLYLQMNSLRAEDTAVYYCARDRGTYYYADGDYNYYYYGMDVWGQGTTVTVSS
VL: not shown
B18: AF-mab023_13 (antibody, V domains shown)
VH: EVQLVESGGGLVQPGGSLRLSCAASGITFSSYWMSWVRQAPGKGLEWVANIKQDGSEKYYVDSVKGRFTISRDIAKNSLYLQMNSLRAEDTAVYYCARDRGTYYYTEGSYNYYYYGMDVWGQGTTVTVSS
VL: not shown

The experiment has as its target T1, recombinant human PCSK9-His protein (Immunogen A) (human, UniProt Q8NBP7 31-692, limits assumed, biotinylated in the ELISA assays).
T1 construct: also called hPCSK9-His; His-tagged hPCSK9; not shown: His tag
Kind of experiment: SPR, Biacore.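 Note: antibodies captured via immobilized anti-human Fc IgG on a CM5 chip, PCSK9 as analyte in HBS-EP+ buffer, 400 s dissociation, reference flow cell subtracted, 1:1 binding model fit.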 Background: Surface plasmon resonance follows binding to a sensor surface in real time, without labels.
B1: the Kd (in general, the free concentration of one partner at which half of the binding sites on the other are occupied at equilibrium, for simple one-to-one binding) stood at 0.36 nM; the koff (commonly the rate constant with which the complex falls apart) worked out at 0.000115 s⁻¹; the kon (commonly a measure of how fast the partners come together) stood at 320000 M⁻¹ s⁻¹.

With B2, the Kd was found to be 0.447 nM, the koff was found to be 0.000143 s⁻¹ and the kon was 319000 M⁻¹ s⁻¹.

On to B3, for which the Kd was 0.268 nM, the koff was 8.2e-05 s⁻¹ and the kon amounted to 306000 M⁻¹ s⁻¹.

Take B4: the Kd came to 0.225 nM, the koff came to 6.59e-05 s⁻¹ and the kon stood at 293000 M⁻¹ s⁻¹.

Consider B5, for which the Kd stood at 1.05 nM, the koff is 0.000328 s⁻¹ and the kon was found to be 313000 M⁻¹ s⁻¹.

In the case of B6, the Kd turned out to be 1.24 nM, the koff was 0.00046 s⁻¹ and the kon was found to be 370000 M⁻¹ s⁻¹.

As for B7, the Kd was 0.26 nM, the koff turned out to be 0.000144 s⁻¹ and the kon came to 553000 M⁻¹ s⁻¹.

Turning to B8, the Kd is 0.381 nM, the koff was found to be 0.000182 s⁻¹ and the kon is 477000 M⁻¹ s⁻¹.

Regarding B9, the Kd stood at 0.207 nM, the koff came to 6.31e-05 s⁻¹ and the kon was 305000 M⁻¹ s⁻¹.

Turning to B10, the Kd stood at 0.409 nM, the koff came to 0.000239 s⁻¹ and the kon turned out to be 584000 M⁻¹ s⁻¹.

In the case of B11, the Kd is 0.176 nM, the koff came to 8.47e-05 s⁻¹ and the kon came to 480000 M⁻¹ s⁻¹.

On to B12, for which the Kd amounted to 0.443 nM, the koff worked out at 0.000158 s⁻¹ and the kon came out at 357000 M⁻¹ s⁻¹.

In the case of B13, the Kd is 1.55 nM, the koff was 0.000351 s⁻¹ and the kon was 226000 M⁻¹ s⁻¹.

For B14, the Kd was found to be 0.306 nM, the koff came out at 0.000164 s⁻¹ and the kon came to 534000 M⁻¹ s⁻¹.

B15: the Kd worked out at 0.31 nM, the koff was determined as 0.000109 s⁻¹ and the kon came to 351000 M⁻¹ s⁻¹.

For the molecule B16, the Kd came to 0.653 nM, the koff came to 0.000214 s⁻¹ and the kon came out at 327000 M⁻¹ s⁻¹.

Regarding B17, the dissociation constant (Kd) came to 0.292 nM, the koff was 0.000161 s⁻¹ and the kon turned out to be 551000 M⁻¹ s⁻¹.

Regarding B18, the Kd worked out at 0.392 nM, the koff was determined as 0.000178 s⁻¹ and the kon was 455000 M⁻¹ s⁻¹.
